Source: publication PMC4595758, “Redox-switch regulatory mechanism of thiolase from Clostridium acetobutylicum” (Nature Communications, 2015)
Positions count from the first letter of the chain named. Numbers in names are those of the source.

Assays:
[1] = biological target: the molecule itself; assay: crystal structure; oxidized form of CaTHL, 1.77 Å, space group P2(1)2(1)2, two molecules per asymmetric unit, tetramer generated by crystallographic symmetry; crystals from 100 mM phosphate-citrate pH 4.2, 10% PEG 3,350, 200 mM sodium chloride at 293 K
[2] = biological target: the molecule itself; assay: crystal structure; CaTHL C378S (reduced form, 10 mM DTT) crystals soaked with 30 mM CoA for 30 min, 1.90 Å, space group P2(1)2(1)2

B1: Clostridium acetobutylicum thiolase (CaTHL), wild type, oxidized form (enzyme, UniProt P45359 1-392, looked up)
chain: MKEVVIASAVRTAIGSYGKSLKDVPAVDLGATAIKEAVKKAGIKPEDVNEVILGNVLQAGLGQNPARQASFKAGLPVEIPAMTINKVCGSGLRTVSLAAQIIKAGDADVIIAGGMENMSRAPYLANNARWGYRMGNAKFVDEMITDGLWDAFNDYHMGITAENIAERWNISREEQDEFALASQKKAEEAIKSGQFKDEIVPVVIKGRKGETVVDTDEHPRFGSTIEGLAKLKPAFKKDGTVTAGNASGLNDCAAVLVIMSAEKAKELGVKPLAKIVSYGSAGVDPAIMGYGPFYATKAAIEKAGWTVDELDLIESNEAFAAQSLAVAKDLKFDMNKVNVNGGAIALGHPIGASGARILVTLVHAMQKRDAKKGLATLCIGGGQGTAILLEKC
notes: Thiolase (acetyl-CoA acetyltransferase) of Clostridium acetobutylicum, amino acid residues 1-392, amplified from the chromosome and cloned into pET30a; In the crystal (oxidized form) a disulfide bond joins Cys88 and Cys378, and residues 280-292 are disordered; Two molecules per asymmetric unit; the tetramer is generated by crystallographic symmetry; also called C. acetobutylicum thiolase; type II …
[1]
  stoichiometry N: 4

B2: Clostridium acetobutylicum thiolase C378S mutant (reduced form of CaTHL) (enzyme, UniProt P45359 1-392, looked up)
chain: B1 chain with C378S
notes: Thiolase (acetyl-CoA acetyltransferase) of Clostridium acetobutylicum, amino acid residues 1-392, with the C378S mutation made by site-directed mutagenesis; Crystallized with 10 mM DTT; For the CoA complex the crystals were soaked with 30 mM CoA for 30 min; also called CaTHL C378S mutant
[2]
  binding result: binds
